This note sets out measurements from the supplement of paper PMC9732359.

± gives the uncertainty stated by the source.

The data set can be described thus: protein stability index of a GFP-peptide fusion (yeast GPS) (PSI 1-4); higher = more stable; sorted into four equal gates, so the index is relative within each strain. The procedure, abridged:
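Each library plasmid carries Cherry plus GFP with a tiled 17-residue yeast protein peptide fused downstream, and the pooled library was carried in yeast. Mid-log cultures in leucine-free medium were sorted into four equal gates by GFP/Cherry ratio. Reads from Illumina sequencing of PCR-amplified plasmids from each gate were assigned to strains by barcodes. Per peptide, the protein stability index was computed as the summed products of gate read frequency and gate number.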

Consider ALGIKVTNPKGRLALEA [RPL32], for which the protein stability index by setting is: (pdr5∆) 3.37 ± 0.18; (san1∆) 2.87 ± 0.23; (ubr1∆) 3.36 ± 0.19.
For LKKKYQIILDRFAPDNQ [SIR3], the protein stability index reads like this: (doa10∆) 1.9 ± 0.09; (pdr5∆) 1.85 ± 0.082; (san1∆) 1.68 ± 0.13; (ubr1∆) 1.74 ± 0.062.
As to EVEKAHPIRLYTRYLDR [PRP8], the protein stability index was 3.11 ± 0.082 (doa10∆), 2.51 ± 0.068 (pdr5∆), 2.35 ± 0.078 (san1∆) and 2.94 ± 0.048 (ubr1∆).
HQPITSEQKMKEDADLK [SIR4]: the protein stability index runs as follows: (doa10∆) 2.88 ± 0.058; (pdr5∆) 3.36 ± 0.1; (san1∆) 3.42 ± 0.063; (ubr1∆) 3.26 ± 0.073.
In the same order, the values of GAKGSTLIVVPFNQGSK [FAS2] are 2.1 ± 0.095, 2.48 ± 0.088, 2.18 ± 0.14 and 1.85 ± 0.073.
For LLEQKKSIINSQRPGAR [ITC1], the protein stability index was determined as 2.67 ± 0.2 (pdr5∆), 2.47 ± 0.23 (san1∆) and 2.62 ± 0.11 (ubr1∆).
As for NVLIGGYDKKKNKPELY [PRE1], the protein stability index runs as follows: (pdr5∆) 2.53 ± 0.27; (ubr1∆) 2.74 ± 0.27.
Turning to AVNLLNCPHSDSTQLLE [SSN2], the protein stability index turned out to be 2.67 ± 0.15 (doa10∆), 3.3 ± 0.092 (pdr5∆), 3.51 ± 0.15 (san1∆) and 2.9 ± 0.072 (ubr1∆).
The sequence DEITEDMFEMSDEEENN [SSN2] yielded a protein stability index (doa10∆) of 3.16 ± 0.099, a protein stability index (pdr5∆) of 3.39 ± 0.11, a protein stability index (san1∆) of 3.25 ± 0.08 and a protein stability index (ubr1∆) of 3.2 ± 0.075.
Consider LPEIAKEIYTTLGNQML [YJR042W/NUP85], for which the protein stability index (doa10∆) came to 2.28 ± 0.086, the protein stability index (pdr5∆) was 2.42 ± 0.087, the protein stability index (san1∆) came out at 2.87 ± 0.093 and the protein stability index (ubr1∆) was 2.49 ± 0.069.
On to GTGNNSAVKRLLHVAVS [RPN2], for which the protein stability index runs as follows: (doa10∆) 2.19 ± 0.24; (pdr5∆) 2.51 ± 0.25; (ubr1∆) 1.58 ± 0.15.
As for RRLHKVLRPFLLRRLKK [SNF2], the protein stability index came out at 2.09 ± 0.078 (doa10∆), 2.53 ± 0.1 (pdr5∆), 1.89 ± 0.12 (san1∆) and 2.53 ± 0.07 (ubr1∆).
With SKFTKIPPTFDKGAVGP [MED4], the protein stability index was 3.17 ± 0.072 (doa10∆), 3.29 ± 0.079 (pdr5∆), 3.33 ± 0.076 (san1∆) and 3.08 ± 0.11 (ubr1∆).
For the sequence SLPEFFTNRIPSKTPEV [SWI3], the protein stability index (doa10∆) came out at 2.56 ± 0.066, the protein stability index (pdr5∆) was found to be 2.53 ± 0.054, the protein stability index (san1∆) turned out to be 2.65 ± 0.062 and the protein stability index (ubr1∆) was determined as 2.66 ± 0.059.
Turning to GYDPALLNILSGLPTCD [RPN2], the protein stability index is, setting by setting: (doa10∆) 2.79 ± 0.083; (pdr5∆) 2.91 ± 0.11; (san1∆) 2.39 ± 0.078; (ubr1∆) 2.55 ± 0.1.
On to RSSEEINSDNQNIILRS [RPN3], for which the protein stability index is, setting by setting: (doa10∆) 3.03 ± 0.26; (pdr5∆) 3.24 ± 0.19; (ubr1∆) 3.2 ± 0.19.
Regarding MVTENPQRLTVLRLATN [MCD1], the protein stability index came out at 2.25 ± 0.069 (doa10∆), 2.32 ± 0.056 (pdr5∆), 2.3 ± 0.062 (san1∆) and 2.38 ± 0.051 (ubr1∆).
In the same order, the values of TGKDCVAIACDLRLGSQ [PUP3] are 1.38 ± 0.088, 1.48 ± 0.092, 2.32 ± 0.064 and 2.7 ± 0.061.
KKNDEVSKPAFSFGAKA [YJL041W/NSP1] had a protein stability index (doa10∆) of 3.12 ± 0.14, a protein stability index (pdr5∆) of 3.02 ± 0.15, a protein stability index (san1∆) of 2.96 ± 0.094 and a protein stability index (ubr1∆) of 3.07 ± 0.099.
As for SRTGPVFDLCWNSLMYA [RRP43], the protein stability index was determined as 2.64 ± 0.06 (doa10∆), 2.45 ± 0.048 (pdr5∆), 2.6 ± 0.048 (san1∆) and 2.41 ± 0.032 (ubr1∆).
GLDKFSNIDIRVRVTGG [RPS16A]: the protein stability index is, setting by setting: (doa10∆) 1.51 ± 0.082; (pdr5∆) 1.74 ± 0.072; (san1∆) 1.52 ± 0.22; (ubr1∆) 1.54 ± 0.055.
Consider TRFPPAVFYTPKELGGL [PRP8], for which the protein stability index came to 3.19 ± 0.076 (doa10∆), 3.08 ± 0.07 (pdr5∆), 3.25 ± 0.068 (san1∆) and 3.04 ± 0.063 (ubr1∆).
In turn, VETILSGKARICIVGGY [FAS2] yielded a protein stability index (doa10∆) of 1.33 ± 0.24, a protein stability index (pdr5∆) of 1.32 ± 0.17, a protein stability index (san1∆) of 1.23 ± 0.16 and a protein stability index (ubr1∆) of 1.14 ± 0.13.
AMEKYLLSKSKIGEEDY [MTW1] registered a protein stability index (doa10∆) of 2.35 ± 0.085, a protein stability index (pdr5∆) of 2.73 ± 0.083, a protein stability index (san1∆) of 2.6 ± 0.1 and a protein stability index (ubr1∆) of 2.73 ± 0.042.
In the case of RAPKVIHGQDFQFFPKE [ISW2], the protein stability index (doa10∆) worked out at 2.56 ± 0.068, the protein stability index (pdr5∆) stood at 2.47 ± 0.069, the protein stability index (san1∆) was determined as 3.17 ± 0.065 and the protein stability index (ubr1∆) was 2.83 ± 0.052.
NFENDNENNSNGGEDTS [REC8] showed a protein stability index (doa10∆) of 2.93 ± 0.2, a protein stability index (pdr5∆) of 2.64 ± 0.27, a protein stability index (san1∆) of 2.65 ± 0.16 and a protein stability index (ubr1∆) of 2.81 ± 0.16.
For LVGRKPAEHPFISAARY [RPC37], in that order: 2.23 ± 0.14, 1.86 ± 0.074, 2.08 ± 0.15 and 2.54 ± 0.084.
Regarding FLLNQNKQLSQSVEEKV [YIL149C/MLP2], the protein stability index was found to be 2.16 ± 0.084 (doa10∆), 1.84 ± 0.1 (pdr5∆), 1.77 ± 0.14 (san1∆) and 2.09 ± 0.068 (ubr1∆).
With DVNEKIRFRIEREVFVD [RPC25], the protein stability index worked out at 1.81 ± 0.074 (doa10∆), 1.29 ± 0.066 (pdr5∆), 1.56 ± 0.13 (san1∆) and 1.2 ± 0.044 (ubr1∆).
Take VEVLLVNYNSDMIKCFL [NUT1]: the protein stability index (doa10∆) turned out to be 1.58 ± 0.1, the protein stability index (pdr5∆) is 1.74 ± 0.077, the protein stability index (san1∆) is 1.51 ± 0.17 and the protein stability index (ubr1∆) stood at 2.02 ± 0.13.
For the sequence TFVHVTDLSGKETIARV [RPS14A], the protein stability index was determined as 2.89 ± 0.069 (doa10∆), 2.82 ± 0.073 (pdr5∆), 2.84 ± 0.05 (san1∆) and 2.4 ± 0.055 (ubr1∆).
Regarding PFMSYSPQLTAIIGLKS [SNF12], the protein stability index reads like this: (doa10∆) 1.67 ± 0.055; (pdr5∆) 2.16 ± 0.062; (san1∆) 2.3 ± 0.078; (ubr1∆) 1.98 ± 0.053.
On to ISTHLKTICNLLISDTE [IRR1], for which the protein stability index reads like this: (doa10∆) 1.64 ± 0.05; (pdr5∆) 1.86 ± 0.059; (san1∆) 1.88 ± 0.088; (ubr1∆) 1.5 ± 0.032.
For ECPGHFGHIDLAKPVFH [RPO21], in that order: 2.69 ± 0.064, 2.88 ± 0.06, 2.74 ± 0.048 and 2.92 ± 0.052.
In the same order, the values of DTVAELQAQLDYLNAEL [FAS2] are 2.81 ± 0.092, 3.08 ± 0.081, 3.12 ± 0.049 and 2.96 ± 0.09.
In the same order, the values of HEFFIANHDDQDDIDEM [SRP68] are 3.12 ± 0.056, 2.64 ± 0.061, 3.24 ± 0.04 and 3.23 ± 0.062.
For the sequence NKSLKYVIHGIELLSDL [LIN1], the protein stability index reads like this: (doa10∆) 2.81 ± 0.093; (pdr5∆) 2.94 ± 0.096; (san1∆) 2.92 ± 0.075; (ubr1∆) 2.87 ± 0.067.
In the case of CPLSQQFCGIKERNSLK [BRR2], the protein stability index (doa10∆) turned out to be 2.88 ± 0.16, the protein stability index (pdr5∆) is 3.14 ± 0.1, the protein stability index (san1∆) came to 2.71 ± 0.094 and the protein stability index (ubr1∆) amounted to 3.08 ± 0.076.
As for VEDYLSSVTSDSMKYTI [RPC82], the protein stability index (doa10∆) amounted to 3.45 ± 0.22, the protein stability index (pdr5∆) was 3.03 ± 0.083, the protein stability index (san1∆) was 3.05 ± 0.14 and the protein stability index (ubr1∆) turned out to be 3.04 ± 0.093.
